Test results: the supplement of paper PMC7877785
± gives the uncertainty stated by the source.

Test: self-splicing fitness, log relative to wild type (ln ratio); higher = more splicing; Tetrahymena group I intron in knt gene, E. coli kanamycin selection, DiMSum; sequences stand for … in CUCUCU…GGAGGGAAAAGUUAUCAGGCAUGCACCUGGUAGCUAGUCUUUAAACCAAUAGAUUGCAUCGGUUUAAAAGGCAAGACCGUCAAAUUGCGGGAAAGGGGUCAACAGCCGUUCAGUACCAAGUCUCAGGGGAAACUUUGAGAUGGCCUUGCAAAGGGUAUGGUAAUAAGCUGACGGACAUGGUCCUAACCACGCAGCCAAGUCCUAAGUCAACAGAUCUUCUGUUGAUAUGGAUGCAGUUCACAGACUAAAUGUCGGUCGGGGAAGAUGUAUUCUUCUCAUAAGAUAUAGUCGGACCUCUCCUUAAUGGGAGCUAGCGGAUGAAGUGAUGCAACACUGGAGCCGCUGGGAACUAAUUUGUAUGCGAAAGUAUAUUGAUUAGUUUUGGAGUACUCGUGGUCG
How it was run: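 A randomised library covering all eight P1ex-region intron nucleotides was built with the intron in the knt kanamycin-resistance gene on pET-22b(+) and held in E. coli BL21(DE3). Cells were grown overnight at 37°C or 30°C on LB agar, with or without 25 μg/mL kanamycin, plus 100 μg/mL carbenicillin, 50 μM IPTG and 0.2% rhamnose, and pooled colonies were amplicon-sequenced on an Illumina HiSeq 2500. DiMSum fitness is the error-weighted combination of wild-type-normalised replicate fold changes, kanamycin versus none.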

Row | Sequence | self-splicing fitness (ln) (30 °C) | self-splicing fitness (ln) (37 °C)
1 | UCUCAGCAAUAUUACGGAUC | -3.82 ± 0.32 | -1.52 ± 0.13
2 | UCUCAGCAAUAUUACGGCGG | -2.46 ± 0.16 | -1.01 ± 0.18
3 | UCUCAGCAAUAUUACGGCUG | -2.11 ± 0.13 | -2.21 ± 0.28
4 | UCUCAGCAAUAUUACGGGCG | -0.717 ± 0.08 | -0.262 ± 0.12
5 | UCUCAGCAAUAUUACGGGUA | -0.605 ± 0.11 | -0.0376 ± 0.11
6 | UCUCAGCAAUAUUACGGUAC | -3.18 ± 0.35 | -2.52 ± 0.34
7 | UCUCAGCAAUAUUACGGUGC | -3.17 ± 0.24 | -3.08 ± 0.23
8 | UCUCAGCAAUAUUACGUAAA | -1.82 ± 0.15 | -1.04 ± 0.2
9 | UCUCAGCAAUAUUACGUACA | -1.81 ± 0.21 | -0.374 ± 0.15
10 | UCUCAGCAAUAUUACGUGAC | -2.02 ± 0.39 | -1.82 ± 0.37
11 | UCUCAGCAAUAUUACGUGUU | -3.47 ± 0.14 | -2.73 ± 0.15
12 | UCUGAGCAAUAUUACGAACG | -2.04 ± 0.34 | -1.65 ± 0.38
13 | UCUGAGCAAUAUUACGAAGU | -2.62 ± 0.16 | -1.56 ± 0.19
14 | UCUGAGCAAUAUUACGACAU | -3.788 ± 0.034 | -2.73 ± 0.044
15 | UCUGAGCAAUAUUACGAGAG | -4.12 ± 0.26 | -2.69 ± 0.45
16 | UCUGAGCAAUAUUACGAUAC |  | -2.12 ± 0.25
17 | UCUGAGCAAUAUUACGCAAC |  | -2.24 ± 0.29
18 | UCUGAGCAAUAUUACGCACC | -3.59 ± 0.45 | 
19 | UCUGAGCAAUAUUACGCAUG | -2.33 ± 0.18 | -1.65 ± 0.17
20 | UCUGAGCAAUAUUACGCUUG | -4.34 ± 0.46 | -2.31 ± 0.3
21 | UCUGAGCAAUAUUACGGAGU | -2.86 ± 0.19 | -2.57 ± 0.17

Row | Sequence | self-splicing fitness (ln) (30 °C) | self-splicing fitness (ln) (37 °C)
22 | UCUGAGCAAUAUUACGGAUG | -4.11 ± 0.31 | -2.14 ± 0.23
23 | UCUGAGCAAUAUUACGGCUG | -3.48 ± 0.2 | -2.22 ± 0.21
24 | UCUGAGCAAUAUUACGGGCC | -2.67 ± 0.35 | 
25 | UCUGAGCAAUAUUACGGGUU | -2.32 ± 0.17 | -2.5 ± 0.24
26 | UCUGAGCAAUAUUACGUAGU | -2.3 ± 0.11 | -0.756 ± 0.13
27 | UCUGAGCAAUAUUACGUCAC |  | -2.32 ± 0.45
28 | UCUGAGCAAUAUUACGUCCU | -1.81 ± 0.39 | 
29 | UCUGAGCAAUAUUACGUCGG | -0.746 ± 0.093 | -0.184 ± 0.12
30 | UCUGAGCAAUAUUACGUGAA | -2.32 ± 0.17 | -1.9 ± 0.27
31 | UCUGAGCAAUAUUACGUUUG | -4.82 ± 0.29 | -1.81 ± 0.15
32 | UCUUAGCAAUAUUACGACAG | -2.9 ± 0.24 | -1.56 ± 0.22
33 | UCUUAGCAAUAUUACGACGG | -0.955 ± 0.15 | -0.0318 ± 0.2
34 | UCUUAGCAAUAUUACGACGU | -0.316 ± 0.1 | -0.505 ± 0.13
35 | UCUUAGCAAUAUUACGAGGC | -3.01 ± 0.46 | 
36 | UCUUAGCAAUAUUACGCAAG | -1.34 ± 0.2 | -2.48 ± 0.28
37 | UCUUAGCAAUAUUACGCGAA |  | -1.19 ± 0.3
38 | UCUUAGCAAUAUUACGCUAG | -2.15 ± 0.19 | -2.47 ± 0.28
39 | UCUUAGCAAUAUUACGGACC |  | -1.91 ± 0.28
40 | UCUUAGCAAUAUUACGGAGC | -3.74 ± 0.4 | -0.68 ± 0.14
41 | UCUUAGCAAUAUUACGGAUG | -3.74 ± 0.28 | -1.76 ± 0.17
